Here are results for 37 molecules from PMC10977697 (PLOS ONE, 2024).

Bounds are passed on as bounds.

A word on the Kd: it is the equilibrium constant for the complex coming apart. Read a low Kd as a tighter complex.

First the molecules themselves.
B2: Notch2NRR (Notch2 NRR domain) (domain or fragment)
chain: ATCLSQYCADKARDGVCDEACNSHACQWDGGDCSLTMENPWANCSSPLPCWDYINNQCDELCNTVECLFDNFECQGNSKTCKYDKYCADHFKDNHCDQGCNSEECGWDGLDCAADQPENLAEGTLVIVVLMPPEQLLQDARSFLRALGTLLHTNLRIKRDSQGELMVYPYYGEKSAAMKKQRMTRRSLPGEQEQEVAGSKVFLEIDNRQCVQDSDHCFKNTDAAAALLASHAIQGTLSYPLVSVVSESLTPERTQ
modifications: biotin on the N-terminal Avi tag (enzymatic)
notes: also called NRR protein; not shown: Avi tag, N-terminal, kept

Assay [1] addresses T1, Notch2Long (Notch2 EGF6-EGF12) (human, UniProt Q04721 219-418, biotin on the N-terminal Avi tag (enzymatic)).
T1 construct: also called N2L protein; hNotch2; not shown: Avi tag, N-terminal, kept
T1 sequence (looked up): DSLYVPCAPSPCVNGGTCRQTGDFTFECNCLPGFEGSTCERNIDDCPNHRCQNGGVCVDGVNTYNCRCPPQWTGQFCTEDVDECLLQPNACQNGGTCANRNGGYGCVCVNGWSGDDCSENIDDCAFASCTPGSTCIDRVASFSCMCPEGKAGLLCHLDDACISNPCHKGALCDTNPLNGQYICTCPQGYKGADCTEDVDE
As to the kind of experiment: SPR. Conditions: both partners purified.

Assay [2] concerns the target B2. Description: SPR. To be noted: both partners purified.
The target of assay [3] is Her3-Fc (UniProt P21860 20-643). Description: ELISA. Conditions: one partner purified. For orientation: An ELISA detects its analyte on a solid surface through an enzyme-linked reagent.
Her3-Fc, sequence (P21860 20-643): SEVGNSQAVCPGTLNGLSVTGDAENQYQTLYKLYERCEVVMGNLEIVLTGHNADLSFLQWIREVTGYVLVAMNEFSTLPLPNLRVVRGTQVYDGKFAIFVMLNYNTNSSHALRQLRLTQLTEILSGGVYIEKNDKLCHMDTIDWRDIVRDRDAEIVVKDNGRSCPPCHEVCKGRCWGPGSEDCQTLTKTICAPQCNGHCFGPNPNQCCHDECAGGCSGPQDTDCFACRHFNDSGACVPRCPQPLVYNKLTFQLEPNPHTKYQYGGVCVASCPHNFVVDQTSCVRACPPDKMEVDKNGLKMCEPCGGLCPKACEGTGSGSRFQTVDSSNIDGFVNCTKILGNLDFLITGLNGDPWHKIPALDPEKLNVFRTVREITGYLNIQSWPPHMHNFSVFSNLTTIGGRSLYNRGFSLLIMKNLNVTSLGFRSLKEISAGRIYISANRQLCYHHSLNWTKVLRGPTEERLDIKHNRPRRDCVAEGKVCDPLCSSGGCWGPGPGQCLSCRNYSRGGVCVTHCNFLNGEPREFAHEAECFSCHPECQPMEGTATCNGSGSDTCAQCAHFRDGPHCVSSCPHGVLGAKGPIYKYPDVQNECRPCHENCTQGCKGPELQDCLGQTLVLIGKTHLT
The target of assay [4] is Her3-Fc Avi-tag (UniProt P21860 20-643). Description: SPR. Conditions: both partners purified.
Her3-Fc Avi-tag, sequence (P21860 20-643): as above
In assay [5] the target is T2, Notch2Long (Notch2 EGF6-EGF12) (human, UniProt Q04721 219-418, biotin via the N-terminal Avi tag (enzymatic biotinylation)).
T2 construct: also called N2L protein; hNotch2; not shown: Avi tag, N-terminal, kept
T2 sequence (looked up): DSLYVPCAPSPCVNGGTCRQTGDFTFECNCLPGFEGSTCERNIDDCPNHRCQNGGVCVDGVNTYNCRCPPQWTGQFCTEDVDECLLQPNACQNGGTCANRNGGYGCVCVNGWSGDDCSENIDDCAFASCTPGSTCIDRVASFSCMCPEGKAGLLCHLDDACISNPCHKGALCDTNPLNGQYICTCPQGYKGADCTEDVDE
Description: SPR. Conditions: both partners purified.

In assay [6] the target is T1, Notch2Long (Notch2 EGF6-EGF12). Description: SPR. Conditions: both partners purified. The source holds these as a separate data set.
In assay [7] the target is T3, HtrA1 (human, UniProt Q92743 23-480, biotin on lysines (Sulfo-NHS-LC-biotin) for panning and SPR).
T3 construct: also called HtrA1 FL; human full-length HtrA1
T3 sequence (Q92743 23-480): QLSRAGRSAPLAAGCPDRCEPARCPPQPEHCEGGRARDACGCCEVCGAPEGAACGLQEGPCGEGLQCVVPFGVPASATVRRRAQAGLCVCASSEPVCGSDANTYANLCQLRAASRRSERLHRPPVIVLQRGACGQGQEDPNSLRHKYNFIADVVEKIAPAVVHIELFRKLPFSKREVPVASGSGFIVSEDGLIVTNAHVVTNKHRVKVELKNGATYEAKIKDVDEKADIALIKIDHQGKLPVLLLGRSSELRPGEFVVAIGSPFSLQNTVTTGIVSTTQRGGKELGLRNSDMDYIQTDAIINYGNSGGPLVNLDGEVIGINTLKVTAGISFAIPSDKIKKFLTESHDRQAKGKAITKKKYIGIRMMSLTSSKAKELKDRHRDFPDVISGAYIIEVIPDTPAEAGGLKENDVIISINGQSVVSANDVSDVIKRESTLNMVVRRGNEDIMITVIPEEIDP
As to the kind of experiment: SPR. Conditions: both partners purified.

The target of assay [8] is T4, PCSK9 (human, UniProt Q8NBP7 31-692, biotin on lysines (Sulfo-NHS-LC-biotin)).
T4 construct: also called PCSK9FL; hPCSK9 FL
T4 sequence (Q8NBP7 31-692): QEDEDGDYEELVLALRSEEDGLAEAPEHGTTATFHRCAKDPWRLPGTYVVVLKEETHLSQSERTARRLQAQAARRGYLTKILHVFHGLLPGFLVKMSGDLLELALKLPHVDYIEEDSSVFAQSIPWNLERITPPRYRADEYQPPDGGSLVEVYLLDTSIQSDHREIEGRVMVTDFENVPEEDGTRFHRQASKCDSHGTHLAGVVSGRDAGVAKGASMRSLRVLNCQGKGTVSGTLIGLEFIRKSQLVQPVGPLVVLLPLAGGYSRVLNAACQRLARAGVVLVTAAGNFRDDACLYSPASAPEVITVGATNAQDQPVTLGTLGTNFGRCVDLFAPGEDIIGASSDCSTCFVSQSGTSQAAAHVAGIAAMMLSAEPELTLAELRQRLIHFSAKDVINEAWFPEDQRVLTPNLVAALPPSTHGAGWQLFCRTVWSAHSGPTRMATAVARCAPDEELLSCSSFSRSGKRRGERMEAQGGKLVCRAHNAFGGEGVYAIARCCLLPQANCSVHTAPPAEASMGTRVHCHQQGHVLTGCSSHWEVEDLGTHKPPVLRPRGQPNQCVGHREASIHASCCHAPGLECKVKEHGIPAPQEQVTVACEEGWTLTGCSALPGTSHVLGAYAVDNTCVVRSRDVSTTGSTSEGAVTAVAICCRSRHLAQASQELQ
Description: SPR. Conditions: both partners purified.

In assay [9] the target is T4, PCSK9. As to the kind of experiment: ELISA. To be noted: one partner purified.
In assay [10] the target is T5, PCSK9ΔCRD (PCSK9 lacking the C-terminal Cys-rich domain CRD) (human, UniProt Q8NBP7 31-452, biotin on lysines (Sulfo-NHS-LC-biotin)).
T5 construct: also called PCSK9DCRD; PCSK9dCRDTEV
T5 sequence (Q8NBP7 31-452, stated change not applied): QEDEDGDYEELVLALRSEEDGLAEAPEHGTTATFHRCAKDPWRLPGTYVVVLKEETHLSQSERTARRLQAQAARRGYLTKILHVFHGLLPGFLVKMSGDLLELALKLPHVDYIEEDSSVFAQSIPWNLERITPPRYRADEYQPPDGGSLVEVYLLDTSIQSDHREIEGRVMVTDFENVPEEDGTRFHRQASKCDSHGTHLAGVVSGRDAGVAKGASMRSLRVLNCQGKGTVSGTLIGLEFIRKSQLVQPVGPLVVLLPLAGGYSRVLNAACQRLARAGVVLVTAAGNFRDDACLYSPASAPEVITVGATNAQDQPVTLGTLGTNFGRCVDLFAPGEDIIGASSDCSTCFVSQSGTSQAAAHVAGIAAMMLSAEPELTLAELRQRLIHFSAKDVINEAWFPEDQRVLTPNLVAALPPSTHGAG
As to the kind of experiment: ELISA. To be noted: one partner purified.

Assay [11] has as its target T1, Notch2Long (Notch2 EGF6-EGF12). As to the kind of experiment: ELISA. To be noted: one partner purified.
For assay [12], the target named is T6, N2N-AVR-n6.
T6 construct: AVR9 scaffold; source: synthetic peptide, folded in vitro
Description: SPR. To be noted: both partners purified.

Assay [13] has as its target T7, N2N-AVR-19.
T7 construct: AVR9 scaffold; source: synthetic peptide, folded in vitro
As to the kind of experiment: SPR. To be noted: both partners purified.

In turn, GCIRSHVWCKQDSDCEAGCICEIWIQCG (designed binder) [N2L.EET31.43.43] displayed a Kd in assay [1] of 3.5 µM.
GCRPRWGGWHCKQDSDCLAGCVCGPNGFCG (designed binder) [N2N-EET-57] had a Kd in [2] of 132 µM.
GCMPRYGGWHCKQDSDCLAGCVCGPNGFCG (designed binder) [N2N-EET-63]: the Kd in assay [2] stood at 166 µM.
Still for that read-out and setting: the value for GCRPRFKGWTCKQDSDCLAGCVCGPNGFCG (designed binder) [N2N-EET-n3] was 180 µM.
The molecule GCGWTLRHCKQDSDCLAGCVCRPIWYCG (designed binder) [N2L.EET03.10] came in with a Kd in [1] of 4.5 µM.

B1: Her3-Fc_ChTx2 displayed on M13 phage (designed binder)
chain: VSCTTSKECWSVCQRLHNTSWLGSCMERFCKCVD
notes: Charybdotoxin scaffold; source: M13 phage from E. coli, culture supernatant
B1: in [3], the ELISA is 1.6 and the s/n Ratio is 24.3.
As for VSCTTSKECWSVCQRLHNTSWLGSCMERFCKCVD (designed binder, Charybdotoxin scaffold) [Her3-Fc_ChTx2], the Kd in assay [4] amounted to 1.5 µM.
For the molecule GCGWTLRHCKQDSDCLAGCVCKPKWTCG (designed binder) [N2L.EET03.34], in assay [5], the Kd was determined as 8.6 µM.
Same read-out and setting: the value for GCGWTLWHCKQDSDCLAGCVCEPKWMCG (designed binder) [N2L.EET03.67] was 15.4 µM; that for GCGWTLMHCKQDSDCLAGCVCEPIWWCG (designed binder) [N2L.EET03.n5] was 13.2 µM; that for GCGWTLWHCKQDSDCLAGCVCEPKWFCG (designed binder) [N2L.EET03.58] was 8.2 µM.
On the same count and under the same terms, to GCGWTLRHCKQDSDCLAGCVCEPVWWCG (designed binder) [N2L.EET03.88] belongs 8.8 µM; to GCGWTLRHCKQDSDCLAGCVCEPKWMCG (designed binder) [N2L.EET03.1867], 9.5 µM.
As to GCGWTLWHCKQDSDCLAGCVCEPIWWCG (designed binder) [N2L-EET-03], the Kd in assay [6] is 43.7 µM.
With ACKGVFDACTWKNWRQSRSRECCPNAVCSDKHKWCKWKL (designed binder, Huwentoxin scaffold) [HtrA1_HwTx69], the Kd in assay [7] was 3.7 µM.
Take GCGWTLAHCKQDSDCLAGCVCQPRWVCG (designed binder) [N2L-EET-29]: the Kd in assay [6] turned out to be 102 µM.
For GPTQSKYGMCGGIGYSGPTVCASGTTCQVLDPYTSQCLPGAS (designed binder) [PCSK9FL_CBD2], the Kd in assay [8] came out at 3.6 µM.
Regarding GPTQSKYGMCGGIGYSGPTVCASGTTCQVLDPYTSQCLPGAS (designed binder) [PCSK9FL_CBD2 displayed on M13 phage], in [9], the ELISA amounted to 1.9 and the s/n Ratio is 26.8.
Molecule WIPCISAALGCSCKNKVCYIFSKHLCGESCV (designed binder) [HtrA1_CirA65] registered a Kd in assay [7] of 2.7 µM.
Same read-out and setting: the value for ECKGKGAKCSIQWSVYPWKVCCTGSCRSGKC (designed binder, Conotoxin-MVIIA scaffold) [HtrA1_CnTx83] was 6.4 µM.
As to ECKGKGAKCSFMTRQGVQTWCCTGSCRSGKC (designed binder, Conotoxin-MVIIA scaffold) [PCSK9_CnTx2], in assay [8], binding was put at a Kd of 2.8 µM.
Regarding ECKGKGAKCSFMTRQGVQTWCCTGSCRSGKC (designed binder, Conotoxin-MVIIA scaffold) [PCSK9_CnTx2 displayed on M13 phage], in [10], the ELISA turned out to be 1.7 and the s/n Ratio is 25.9.
In [2], GCQQRRWGGWQQCKQDSDCLAGCVCGPNGFCG (designed binder) [N2N-EET-33] displayed a Kd of 55.6 µM.
GCGQQRWGGWPLCKQDSDCLAGCVCGPNGFCG (designed binder) [N2N-EET-45] displayed a Kd in [2] of 55.9 µM.
The same measure, in the same setting: to GCGQKRMGGWQWCKQDSDCLAGCVCGPNGFCG (designed binder) [N2N-EET-n13] belongs 12 µM.
As for GPTQSWQGRCGGIGYSGPTVCASGTTCQVLTPYWSECLPGAS (designed binder, also called Her3_CBD1) [Her3-Fc_CBD1], the Kd in [4] is 27 µM.
With GPTQSWQGRCGGIGYSGPTVCASGTTCQVLTPYWSECLPGAS (designed binder) [Her3-Fc_CBD1 displayed on M13 phage], in assay [3], the ELISA was 1.7 and the s/n Ratio was 20.2.
On to GCIKSHLWCPRDSDCLAGCVCEVWIQCG (designed binder) [N2L.EET31.32.13], for which, in assay [1], the Kd was found to be 35 µM.
As to GCGWTLAHCKQDSDCLAGCVCQPRWVCG (designed binder) [N2L-EET-29 displayed on M13 phage], in assay [11], the ELISA worked out at 0.6 and the s/n Ratio turned out to be 4.4.
For the molecule GCIRSHLWCPPSASCLAGCVCEVWIQCG (designed binder) [N2L.EET31.32.70], the Kd in [1] was determined as 1 µM.
For GCIKSHLWCDPRKDCEAGCICEVWIQCG (designed binder) [N2L.EET31.43.75], the Kd in assay [1] was 0.41 µM.
For the molecule B2, the Kd in [12] was 0.8 µM; in [13] it was 9.4 µM.
Regarding GCHRPWWQLWGLCKQDSDCLAGCVCGPNGFCG (designed binder) [HtrA1_EET76], in [7], the Kd was 9.5 µM.
On to GCIKSHLWCPKTSDCEAGCICEVWIQCG (designed binder) [N2L.EET31.43.24], for which binding in [1] was characterised by a dissociation constant (Kd) of 3.5 µM.

B3: Her3-Fc_ChTx1 displayed on M13 phage (designed binder)
chain: VSCTTSKECWSVCQRLHNTSWGEQCVTKFCKCEE
notes: as for B1
B3: in assay [3], the ELISA came to 1.7 and the s/n Ratio was 22.6.
Consider VSCTTSKECWSVCQRLHNTSWGEQCVTKFCKCEE (designed binder, Charybdotoxin scaffold) [Her3-Fc_ChTx1], for which the Kd in assay [4] was > 10 µM.
Molecule WIPCISAALGCSCKNKVCYFLYQICGESCV (designed binder) [HtrA1_CirA38] returned a Kd in [7] of 2.5 µM.
